Consider one substance from paper PMC8254828.

In the experiment the target is 3XHA-ankyrin-G F1609R (UniProt G5E8K5).
Sequence of UniProt G5E8K5 (G5E8K5 whole entry F1609R): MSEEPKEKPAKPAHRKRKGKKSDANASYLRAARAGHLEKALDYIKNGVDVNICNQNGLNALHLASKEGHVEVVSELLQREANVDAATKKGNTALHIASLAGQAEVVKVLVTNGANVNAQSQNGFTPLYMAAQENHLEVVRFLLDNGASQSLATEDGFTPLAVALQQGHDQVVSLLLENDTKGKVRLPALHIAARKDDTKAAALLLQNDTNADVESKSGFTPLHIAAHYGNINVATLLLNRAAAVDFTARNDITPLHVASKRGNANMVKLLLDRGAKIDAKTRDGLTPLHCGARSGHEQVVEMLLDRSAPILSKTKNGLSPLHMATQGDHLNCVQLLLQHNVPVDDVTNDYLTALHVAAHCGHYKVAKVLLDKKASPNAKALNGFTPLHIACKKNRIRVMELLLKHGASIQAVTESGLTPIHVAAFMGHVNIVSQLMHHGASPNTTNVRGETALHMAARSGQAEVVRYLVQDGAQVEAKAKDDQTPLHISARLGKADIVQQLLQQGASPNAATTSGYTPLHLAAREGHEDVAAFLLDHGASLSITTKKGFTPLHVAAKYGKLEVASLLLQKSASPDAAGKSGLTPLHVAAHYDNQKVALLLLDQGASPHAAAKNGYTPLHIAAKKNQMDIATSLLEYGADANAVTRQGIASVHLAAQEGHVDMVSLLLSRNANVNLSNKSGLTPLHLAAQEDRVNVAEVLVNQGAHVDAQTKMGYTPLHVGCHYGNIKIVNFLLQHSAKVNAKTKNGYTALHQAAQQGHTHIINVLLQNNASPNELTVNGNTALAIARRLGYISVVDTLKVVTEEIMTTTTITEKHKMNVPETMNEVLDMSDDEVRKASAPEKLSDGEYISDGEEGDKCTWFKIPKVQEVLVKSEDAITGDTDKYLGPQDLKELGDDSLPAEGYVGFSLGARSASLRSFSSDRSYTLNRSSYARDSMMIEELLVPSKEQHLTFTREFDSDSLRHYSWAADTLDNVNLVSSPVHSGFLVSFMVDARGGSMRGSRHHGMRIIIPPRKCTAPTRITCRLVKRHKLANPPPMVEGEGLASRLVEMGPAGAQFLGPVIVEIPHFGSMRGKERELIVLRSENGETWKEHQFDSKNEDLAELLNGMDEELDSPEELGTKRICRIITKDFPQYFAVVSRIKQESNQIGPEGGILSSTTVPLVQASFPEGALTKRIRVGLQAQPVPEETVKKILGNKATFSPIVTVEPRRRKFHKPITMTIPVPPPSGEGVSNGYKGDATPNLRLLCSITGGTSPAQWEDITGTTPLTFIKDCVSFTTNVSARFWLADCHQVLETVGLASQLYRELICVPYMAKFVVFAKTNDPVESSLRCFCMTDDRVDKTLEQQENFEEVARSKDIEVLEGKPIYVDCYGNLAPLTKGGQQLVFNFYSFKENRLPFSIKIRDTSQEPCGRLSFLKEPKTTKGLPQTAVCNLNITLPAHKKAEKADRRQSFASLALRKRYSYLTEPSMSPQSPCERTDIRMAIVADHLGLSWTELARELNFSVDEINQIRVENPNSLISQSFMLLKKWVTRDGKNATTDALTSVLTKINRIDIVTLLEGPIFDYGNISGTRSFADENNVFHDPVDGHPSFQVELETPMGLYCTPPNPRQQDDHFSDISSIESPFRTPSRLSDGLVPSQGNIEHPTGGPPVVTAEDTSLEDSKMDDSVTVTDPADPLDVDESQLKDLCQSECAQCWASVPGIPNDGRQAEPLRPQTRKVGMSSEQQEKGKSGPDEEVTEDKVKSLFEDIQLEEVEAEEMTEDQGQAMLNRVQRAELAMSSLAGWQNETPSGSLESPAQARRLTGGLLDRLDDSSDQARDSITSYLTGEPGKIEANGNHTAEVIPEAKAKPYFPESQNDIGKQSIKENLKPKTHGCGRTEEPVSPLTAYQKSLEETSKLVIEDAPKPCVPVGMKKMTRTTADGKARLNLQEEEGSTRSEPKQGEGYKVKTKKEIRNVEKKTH

For the substance “Homer1b/c, endogenous (from UniProt Q9Z2Y3 1-366) (natural protein)”, the FRAP in dendritic spines of primary cortical neurons: mobile fraction of GFP-ankyrin-G^F1609R against GFP-ankyrin-G^WT, 200 s after photobleaching (GFP-tagged forms of the constructs) was 22.4%.
